Reference: PMC4669970 (Biochemical pharmacology, 2015)
Like-named read-outs stand apart in the source and are kept apart here. No end group written: not given here.

Columns and labels:
[1] = target: human BChE (Homo sapiens, UniProt P06276); experiment: Inhibition of BChE-catalysed ghrelin hydrolysis by BChE-specific inhibitors; format: biochemical; conditions: parallel assays, modest concentrations of inhibitor
[2] = Tissue distribution of [^3H]-ghrelin after i.v. bolus in DFP-pretreated mice; conditions: as E30
[3] = rats; cited from earlier work
[4] = humans; cited from earlier work

Chain of human BChE (P06276 29-602): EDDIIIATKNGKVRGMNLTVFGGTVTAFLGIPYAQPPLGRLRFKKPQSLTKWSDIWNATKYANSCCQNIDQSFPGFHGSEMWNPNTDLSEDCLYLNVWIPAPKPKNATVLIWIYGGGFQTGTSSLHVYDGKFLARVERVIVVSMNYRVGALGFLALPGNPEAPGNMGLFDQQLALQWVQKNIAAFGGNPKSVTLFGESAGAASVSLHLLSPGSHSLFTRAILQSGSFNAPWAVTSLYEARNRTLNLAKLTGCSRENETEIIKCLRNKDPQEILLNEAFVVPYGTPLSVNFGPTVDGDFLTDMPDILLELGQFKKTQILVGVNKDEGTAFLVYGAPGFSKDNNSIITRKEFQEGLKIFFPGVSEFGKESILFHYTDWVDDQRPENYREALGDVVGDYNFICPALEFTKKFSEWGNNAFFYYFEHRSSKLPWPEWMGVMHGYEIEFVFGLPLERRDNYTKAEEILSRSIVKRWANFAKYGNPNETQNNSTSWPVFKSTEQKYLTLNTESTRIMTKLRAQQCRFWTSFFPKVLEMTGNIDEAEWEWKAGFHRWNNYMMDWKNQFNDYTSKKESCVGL

Compound | effect on BChE ghrelin hydrolysis reactions [1] | time of peak concentration in liver [2] [min] | time of peak concentration in pancreas [2] [min] | time of peak concentration in spleen [2] [min] | circulating half-life [3] [min] | circulating half-life [4] [min]
CCN(CC)C(C)CN1c2ccccc2Sc2ccccc21 (stereo not drawn) [ethopropazine] | stopped those reactions completely |  |  |  |  | 
ghrelin (GSS((3H)n‑octanoyl)FLSPEHQRVQQRKESKKPPAKLQPR; also: tritium label on the octanoyl group (tracer form); UniProt Q9UBU3 24-51, looked up) |  | 6 | 12 | 12 | 8 | 8 to 13
